From patent US20200024330A1

Legend:
Experiment in all cases: cell-based or functional assay
[1] = target: HIV-1 Env of pseudovirus 6535.3 (Acute), clade B (HIV-1)
[2] = target: HIV-1 Env of isolate MGRM-D-004 (clade D) (HIV-1)
[3] = target: HIV-1 93MW959 envelope glycoprotein (Env) on pseudovirus (HIV-1)
[4] = target: HIV-1 IAVI-C18 envelope protein (Env) on pseudovirus (HIV-1)
[5] = target: HIV-1 Env of pseudovirus APV_6, clade B (HIV-1)
[6] = target: HIV-1 Env of isolate MGRM-AE-002 (HIV-1)
[7] = target: HIV-1 92RW020 envelope glycoprotein (Env) (HIV-1)
[8] = target: HIV-1 MGRM-C-010 Env (HIV-1)
[9] = target: HIV-1 Env of isolate MGRM-G-017 (clade G pseudovirus) (HIV-1)
[10] = target: HIV-1 MGRM-F1-004 Env (pseudovirus) (HIV-1)
[11] = target: HIV-1 92RW020 envelope protein (Env) on pseudovirus (HIV-1)
[12] = target: HIV-1 Env of pseudovirus QH0692.42 (Acute), clade B (HIV-1)
[13] = target: HIV-1 Env of isolate MGRM-D-002 (clade D) (HIV-1)
[14] = target: HIV-1 MGRM-A-009 envelope glycoprotein (Env) (HIV-1)
[15] = target: HIV-1 Env of isolate MGRM-A-011 (clade A), on pseudovirus (HIV-1)
[16] = target: HIV-1 JR-CSF Env E466A (HIV-1 (isolate JR-CSF)) (UniProt P20871)
[17] = target: HIV-1 Env of isolate MGRM-F1-008 (subtype F), on pseudovirus (HIV-1)
[18] = target: HIV-1 JR-CSF Env N160K (HIV-1 (isolate JR-CSF)) (UniProt P20871)
[19] = target: HIV-1 Env of isolate MGRM-C-023 (HIV-1)
[20] = target: HIV-1 Env of isolate MGRM-AG-011 (CRF_AG), on pseudovirus (HIV-1)
[21] = target: HIV-1 Env of isolate 92UG037 (HIV-1)
[22] = target: HIV-1 JR-CSF Env D185A (HIV-1 (isolate JR-CSF)) (UniProt P20871)
[23] = target: HIV-1 Env of isolate 98IN022 (HIV-1)
[24] = target: HIV-1 JR-CSF Env F468A (HIV-1 (isolate JR-CSF)) (UniProt P20871)
[25] = target: HIV-1 Env of isolate 92UG046 (HIV-1)
[26] = target: HIV-1 Env of isolate MGRM-AG-013 (CRF_AG), on pseudovirus (HIV-1)
[27] = target: HIV-1 Env of isolate 92WR009 (HIV-1)
[28] = target: HIV-1 Env of isolate MGRM-F1-018 (subtype F), on pseudovirus (HIV-1)
[29] = target: HIV-1 Env of isolate MGRM-AE-006 (CRF01_AE), on pseudovirus (HIV-1)
[30] = target: HIV-1 Env of isolate 92UG031 (HIV-1)
[31] = target: HIV-1 JR-CSF Env N197A (HIV-1 (isolate JR-CSF)) (UniProt P20871)
[32] = target: HIV-1 JR-CSF Env E172A (HIV-1 (isolate JR-CSF)) (UniProt P20871)
[33] = target: HIV-1 Env of isolate MGRM-AE-005 (CRF01_AE), on pseudovirus (HIV-1)
[34] = target: HIV-1 Env of isolate MGRM-D-016 (HIV-1)
[35] = target: HIV-1 Env of isolate MGRM-G-028 (HIV-1)
[36] = target: HIV-1 Env of isolate MGRM-A-007 (clade A), on pseudovirus (HIV-1)

## b12 (antibody)
[1]
  IC50 (µg/ml), pseudovirus neutralization: 1.93 µg/mL
[2]
  IC50 (µg/ml), pseudovirus neutralization: > 50 µg/mL
[3]
  IC50 (µg/ml), pseudovirus neutralization: > 50 µg/mL
[4]
  neutralization IC50: > 50 µg/mL
[5]
  IC50 (µg/ml), pseudovirus neutralization: > 50 µg/mL
[6]
  IC50 (µg/ml), pseudovirus neutralization: 17.1 µg/mL
[7]
  IC50 (µg/ml), pseudovirus neutralization: > 50 µg/mL
[8]
  IC50: > 50 µg/mL
[9]
  IC50 (µg/ml), pseudovirus neutralization: > 50 µg/mL
[10]
  IC50 (µg/ml), pseudovirus neutralization: > 50 µg/mL
[11]
  neutralization IC50: > 50 µg/mL
[12]
  IC50 (µg/ml), pseudovirus neutralization: 0.73 µg/mL
[13]
  IC50 (µg/ml), pseudovirus neutralization: > 50 µg/mL
[14]
  IC50 (µg/ml), pseudovirus neutralization: 4.34 µg/mL

## 5114_A19 (PGT-128) (antibody)
[15]
  IC50, single-round pseudovirus neutralization: > 50 µg/mL
[16]
  Fold IC50 increase relative to wild-type: 0.6 fold
[17]
  IC50, pseudovirus neutralization: > 50 µg/mL
[18]
  Fold IC50 increase relative to wild-type: 1 fold
[19]
  IC50: 0.026 µg/mL
[20]
  IC50, single-round pseudovirus neutralization: 3.93 µg/mL
[21]
  neutralization IC50: 0.006 µg/mL
[22]
  Fold IC50 increase relative to wild-type: 1.5 fold
[23]
  IC50: 0.014 µg/mL
[24]
  Fold IC50 increase relative to wild-type: 0.5 fold
[25]
  IC50: > 50 µg/mL
[26]
  IC50, single-round pseudovirus neutralization: 0.004 µg/mL
[27]
  neutralization IC50: 0.812 µg/mL
[28]
  IC50, pseudovirus neutralization: 0.023 µg/mL
[29]
  IC50, single-round pseudovirus neutralization: 0.044 µg/mL
[30]
  neutralization IC50: > 50 µg/mL
[31]
  Fold IC50 increase relative to wild-type: 1 fold
[32]
  Fold IC50 increase relative to wild-type: 2.5 fold
[33]
  IC50, single-round pseudovirus neutralization: 0.032 µg/mL
[34]
  IC50: > 50 µg/mL
[35]
  IC50, pseudovirus neutralization: 0.008 µg/mL
[36]
  IC50, single-round pseudovirus neutralization: > 50 µg/mL

## 4E10 (antibody)
[1]
  IC50 (µg/ml), pseudovirus neutralization: 1.23 µg/mL
[2]
  IC50 (µg/ml), pseudovirus neutralization: 1.58 µg/mL
[3]
  IC50 (µg/ml), pseudovirus neutralization: 4.55 µg/mL
[4]
  neutralization IC50: > 50 µg/mL
[5]
  IC50 (µg/ml), pseudovirus neutralization: 1.1 µg/mL
[6]
  IC50 (µg/ml), pseudovirus neutralization: 0.55 µg/mL
[7]
  IC50 (µg/ml), pseudovirus neutralization: 4.54 µg/mL
[8]
  IC50: 11 µg/mL
[9]
  IC50 (µg/ml), pseudovirus neutralization: 1.14 µg/mL
[10]
  IC50 (µg/ml), pseudovirus neutralization: 2.74 µg/mL
[11]
  neutralization IC50: 3.38 µg/mL
[12]
  IC50 (µg/ml), pseudovirus neutralization: 12.7 µg/mL
[13]
  IC50 (µg/ml), pseudovirus neutralization: 9.44 µg/mL
[14]
  IC50 (µg/ml), pseudovirus neutralization: 12 µg/mL

## 5343_B08 (PGT-135) (antibody)
[15]
  IC50, single-round pseudovirus neutralization: > 50 µg/mL
[16]
  Fold IC50 increase relative to wild-type: 0.5 fold
[17]
  IC50, pseudovirus neutralization: > 50 µg/mL
[18]
  Fold IC50 increase relative to wild-type: 7.7 fold
[19]
  IC50: 0.051 µg/mL
[20]
  IC50, single-round pseudovirus neutralization: > 50 µg/mL
[21]
  neutralization IC50: 3.67 µg/mL
[22]
  Fold IC50 increase relative to wild-type: 1.3 fold
[23]
  IC50: 0.014 µg/mL
[24]
  Fold IC50 increase relative to wild-type: 1.1 fold
[25]
  IC50: > 50 µg/mL
[26]
  IC50, single-round pseudovirus neutralization: > 50 µg/mL
[27]
  neutralization IC50: > 50 µg/mL
[28]
  IC50, pseudovirus neutralization: > 50 µg/mL
[29]
  IC50, single-round pseudovirus neutralization: > 50 µg/mL
[30]
  neutralization IC50: > 50 µg/mL
[31]
  Fold IC50 increase relative to wild-type: 0.3 fold
[32]
  Fold IC50 increase relative to wild-type: 1.3 fold
[33]
  IC50, single-round pseudovirus neutralization: > 50 µg/mL
[34]
  IC50: > 50 µg/mL
[35]
  IC50, pseudovirus neutralization: > 50 µg/mL
[36]
  IC50, single-round pseudovirus neutralization: > 50 µg/mL

## 2F5 (antibody)
[1]
  IC50 (µg/ml), pseudovirus neutralization: 2.76 µg/mL
[2]
  IC50 (µg/ml), pseudovirus neutralization: 2.3 µg/mL
[3]
  IC50 (µg/ml), pseudovirus neutralization: > 50 µg/mL
[4]
  neutralization IC50: > 50 µg/mL
[5]
  IC50 (µg/ml), pseudovirus neutralization: 0.25 µg/mL
[6]
  IC50 (µg/ml), pseudovirus neutralization: 0.31 µg/mL
[7]
  IC50 (µg/ml), pseudovirus neutralization: 3.36 µg/mL
[8]
  IC50: > 50 µg/mL
[9]
  IC50 (µg/ml), pseudovirus neutralization: 0.6 µg/mL
[10]
  IC50 (µg/ml), pseudovirus neutralization: 4.31 µg/mL
[11]
  neutralization IC50: 3.37 µg/mL
[12]
  IC50 (µg/ml), pseudovirus neutralization: 5.42 µg/mL
[13]
  IC50 (µg/ml), pseudovirus neutralization: 24.6 µg/mL
[14]
  IC50 (µg/ml), pseudovirus neutralization: 9.4 µg/mL

## 5147_N06 (PGT-130) (antibody)
[15]
  IC50, single-round pseudovirus neutralization: > 50 µg/mL
[16]
  Fold IC50 increase relative to wild-type: 1.7 fold
[17]
  IC50, pseudovirus neutralization: 0.065 µg/mL
[18]
  Fold IC50 increase relative to wild-type: 3.4 fold
[19]
  IC50: 0.151 µg/mL
[20]
  IC50, single-round pseudovirus neutralization: > 50 µg/mL
[21]
  neutralization IC50: 0.061 µg/mL
[22]
  Fold IC50 increase relative to wild-type: 0.9 fold
[23]
  IC50: > 50 µg/mL
[24]
  Fold IC50 increase relative to wild-type: 0.4 fold
[25]
  IC50: > 50 µg/mL
[26]
  IC50, single-round pseudovirus neutralization: 0.01 µg/mL
[27]
  neutralization IC50: 1.27 µg/mL
[28]
  IC50, pseudovirus neutralization: > 50 µg/mL
[29]
  IC50, single-round pseudovirus neutralization: 0.009 µg/mL
[30]
  neutralization IC50: > 50 µg/mL
[31]
  Fold IC50 increase relative to wild-type: 1.2 fold
[32]
  Fold IC50 increase relative to wild-type: 1.4 fold
[33]
  IC50, single-round pseudovirus neutralization: 0.006 µg/mL
[34]
  IC50: > 50 µg/mL
[35]
  IC50, pseudovirus neutralization: 0.074 µg/mL
[36]
  IC50, single-round pseudovirus neutralization: > 50 µg/mL

## 1495_C14 (PGC14) (antibody)
[1]
  IC50 (µg/ml), pseudovirus neutralization: 35 µg/mL
[2]
  IC50 (µg/ml), pseudovirus neutralization: > 50 µg/mL
[3]
  IC50 (µg/ml), pseudovirus neutralization: > 50 µg/mL
[4]
  neutralization IC50: > 50 µg/mL
[5]
  IC50 (µg/ml), pseudovirus neutralization: 23 µg/mL
[6]
  IC50 (µg/ml), pseudovirus neutralization: > 50 µg/mL
[7]
  IC50 (µg/ml), pseudovirus neutralization: 46 µg/mL
[8]
  IC50: > 50 µg/mL
[9]
  IC50 (µg/ml), pseudovirus neutralization: > 50 µg/mL
[10]
  IC50 (µg/ml), pseudovirus neutralization: > 50 µg/mL
[11]
  neutralization IC50: 28.6 µg/mL
[12]
  IC50 (µg/ml), pseudovirus neutralization: > 50 µg/mL
[13]
  IC50 (µg/ml), pseudovirus neutralization: 29 µg/mL
[14]
  IC50 (µg/ml), pseudovirus neutralization: > 50 µg/mL

## 1443_C16 (PG16) (TCN-116) (antibody)
[1]
  IC50 (µg/ml), pseudovirus neutralization: 36.9 µg/mL
[2]
  IC50 (µg/ml), pseudovirus neutralization: 0.01 µg/mL
[3]
  IC50 (µg/ml), pseudovirus neutralization: 0.007 µg/mL
[4]
  neutralization IC50: 0.0067 µg/mL
[5]
  IC50 (µg/ml), pseudovirus neutralization: 0.29 µg/mL
[6]
  IC50 (µg/ml), pseudovirus neutralization: 0.01 µg/mL
[7]
  IC50 (µg/ml), pseudovirus neutralization: 0.28 µg/mL
[8]
  IC50: > 50 µg/mL
[9]
  IC50 (µg/ml), pseudovirus neutralization: 0.02 µg/mL
[10]
  IC50 (µg/ml), pseudovirus neutralization: 0.43 µg/mL
[11]
  neutralization IC50: 0.004 µg/mL
[12]
  IC50 (µg/ml), pseudovirus neutralization: > 50 µg/mL
[13]
  IC50 (µg/ml), pseudovirus neutralization: 0.01 µg/mL
[14]
  IC50 (µg/ml), pseudovirus neutralization: 0.01 µg/mL

## 2G12 (antibody)
[1]
  IC50 (µg/ml), pseudovirus neutralization: 3.85 µg/mL
[2]
  IC50 (µg/ml), pseudovirus neutralization: > 50 µg/mL
[3]
  IC50 (µg/ml), pseudovirus neutralization: > 50 µg/mL
[4]
  neutralization IC50: > 50 µg/mL
[5]
  IC50 (µg/ml), pseudovirus neutralization: 1.9 µg/mL
[6]
  IC50 (µg/ml), pseudovirus neutralization: > 50 µg/mL
[7]
  IC50 (µg/ml), pseudovirus neutralization: 0.48 µg/mL
[8]
  IC50: > 50 µg/mL
[9]
  IC50 (µg/ml), pseudovirus neutralization: > 50 µg/mL
[10]
  IC50 (µg/ml), pseudovirus neutralization: > 50 µg/mL
[11]
  neutralization IC50: 0.56 µg/mL
[12]
  IC50 (µg/ml), pseudovirus neutralization: 4.39 µg/mL
[13]
  IC50 (µg/ml), pseudovirus neutralization: > 50 µg/mL
[14]
  IC50 (µg/ml), pseudovirus neutralization: 7.47 µg/mL
